# Patent US20140112931A1 (UNIVERSITE DE MONTPELLIER 1, published 2014)
# B1: anti-HER3 antibody Ab6 (Merrimack Pharmaceuticals) (antibody, V domains shown)
# VH: EVQLLESGGGLVQPGGSLRLSCAASGFTFSHYVMAWVRQAPGKGLEWVSSISSSGGWTLYADSVKGRFTISRDNSKNTLYLQMNSLRAEDTAVYYCTRGLKMATIFDYWGQGTLVTVSS
# VL: QSALTQPASVSGSPGQSITISCTGTSSDVGSYNVVSWYQQHPGKAPKLIIYEVSQRPSGVSNRFSGSKSGNTASLTISGLQTEDEADYYCCSYAGSSIFVIFGGGTKVTVL
# B2: heregulin (HRG) (ligand, UniProt Q02297-6 177-237, looked up)
# chain: SHLVKCAEKEKTFCVNGGECFMVKDLSNPSRYLCKCPNEFTGDRCQNYVMASFYKHLGIEF
# notes: also called HRG ligand
# B3: murine anti-HER3 monoclonal antibody 9F7-F11 (antibody, V domains shown)
# VH: EVKLVESGGGLVQPGGSLKLSCAASGFTFSSYTMSWVRQTPEKRLEWVAYISDGGGVTYYPDTIKGRFTISRDNAKNTLYLQMSSLKSEDTAMYYCARDRYGLFAYWGQGTLVTVSA
# VL: DIVMTQSQKFMSTSVGDRVSITCKASQNVGIAVAWYQQKPGQSPKLLIYSASNRYTGVPDRFTGSGSGTDFTLTISNMQSEDLADYFCQQYSNYPYTFGGGTKLEIK
# B4: anti-HER3 antibody U1-59 (Amgen/U3 Pharma-Daiichi Sankyo) (antibody, V domains shown)
# VH: QVQLQQWGAGLLKPSETLSLTCAVYGGSFSGYYWSWIRQPPGKGLEWIGEINHSGSTNYNPSLKSRVTISVETSKNQFSLKLSSVTAADTAVYYCARDKWTWYFDLWGRGTLVTVSS
# VL: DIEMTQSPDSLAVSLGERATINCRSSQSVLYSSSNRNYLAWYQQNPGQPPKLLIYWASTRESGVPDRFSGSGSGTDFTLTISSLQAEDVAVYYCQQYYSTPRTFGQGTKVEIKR
# Experiments:
# [1] = molecular target: T1, EGFR on EGFR-transfected NIH 3T3 cells (UniProt P00533 25-1210, limits assumed); assay: flow cytometry on EGFR-transfected NIH 3T3 cells
# T1 construct: whole, on cells; also called ErbB1; HER1
# [2] = molecular target: T2, HER2 on HER2- or HER2/HER3-transfected NIH 3T3 cells (UniProt P04626 23-1255, limits assumed); assay: flow cytometry on HER2-transfected NIH 3T3 cells
# T2 construct: whole, on cells
# [3] = molecular target: T3, HER3 receptor on cells (HER3- and HER2/HER3-transfected NIH 3T3 cells, SKBR3 cells, BxPC3 cells) (human, UniProt P21860 20-1342); assay: flow cytometry on HER3-transfected NIH 3T3 cells
# T3 construct: whole, on cells
# [4] = molecular target: T3, HER3 receptor on cells (HER3- and …); assay: flow cytometry on HER2/HER3-transfected NIH 3T3 cells
# [5] = molecular target: T3, HER3 receptor on cells (HER3- and …); assay: FACS competition on SKBR3 cells: heregulin against HER3-specific positive control antibody B
# Procedure: (§1) After one washing with PBS-1% BSA, anti-HER3 mAbs, at concentration giving 50% maximal binding, were added to each well for 1 h on ice.
# [6] = molecular target: T3, HER3 receptor on cells (HER3- and …); assay: flow cytometry competition on SKBR3 cells; HRG varied; competitor: antibody 12H8-B11 at the concentration giving 50% maximal binding; antibody 12H8-B11 as the displaced probe, SKBR3 cells
# Procedure: as §1
# [7] = molecular target: T4, human HER3-Fc protein (R&D system) (human, UniProt P21860 20-643); assay: ELISA, HER3-Fc coated at 250 ng/ml
# T4 construct: Bought (R&D system); called soluble HER3-Fc; also called soluble HER3-Fc; HER3-Fc antigen; not shown: Fc part
Binder,geometric mean (flow cytometry) [1],geometric mean (flow cytometry) [2],geometric mean (flow cytometry) [3],geometric mean (flow cytometry) [4],IC50 (read off the curve) [5] [nM],IC50 [6] [nM],EC50 [7] [µg/mL]
B1,0.2,0.3,7.8,14.1,–,–,–
B2,–,–,–,–,~2,~2.5,–
B3,0.4,0.4,1.8,12.4,–,–,–
B4,0.2,0.4,9.3,15.5,–,–,~0.2
